For one substance, median time to rupture of paired filament complexes under myosin-5 tension results are on record in paper doi:10.1101/2023.08.15.553463.

This assay has as its target actin filaments (F-actin) polymerised from chicken skeletal muscle actin (chicken) (UniProt P68139). The assay is described as follows: TIRF microscopy (gliding filament assay); unpatterned PEG-silane coverslips with 50 nM myosin-5; 1 μM phalloidin-labelled F-actin pre-incubated with 1, 2, 5 or 10 nM CPC for 15 min at room temperature; imaging buffer with 2 mM ATP and calmodulin; about 25°C.

In the case of “capping protein complex (CPC): two CapZAB capping protein heterodimers covalently attached through a linker complex (from UniProt P47753 1-286; P47757-2 1-272)”, the median time to rupture of paired filament complexes under myosin-5 tension was in the range of 26 to 29 s.
